{"source": "paper PMC7893194", "binders": {"B1": {"name": "human IFNAR1 (receptor)", "chain": "KNLKSPQKVEVDIIDDNFILRWNRSDESVGNVTFSFDYQKTGMDNWIKLSGCQNITSTKCNFSSLKLNVYEEIKLRIRAEKENTSSWYEVDSFTPFRKAQIGPPEVHLEAEDKAIVIHISPGTKDSVMWALDGLSFTYSLVIWKNSSGVEERIENIYSRHKIYKLSPETTYCLKVKAALLTSWKIGVYSPVHCIKTTVENELPPPENIEVSVQNQNYVLKWDYTYANMTFQVQWLHAFLKRNPGNHLYKWKQIPDCENVKTTQCVFPQNVFQKGIYLLRVQASDGNNTSFWSEEIKFDTEIQAFLLPPVFNIRSLSDSFHIYIGAPKQSGNTPVIQDYPLIYEIIFWENTSNAERKIIEKKTDVTVPNLKPLTVYCVKARAHTMDEKLNKSSVFSDAVCEKTKPGNTSKIWLIVGICIALFALPFVIYAAKVFLRCINYVFFPSLKPSSSIDEYFSEQPLKNLLLSTSEEQIEKCFIIENISTIATVEETNQTDEDHKKYSSQTSQDSGNYSNEDESESKTSEELQQDFV"}}, "biological_target": "interferon α (IFNα) (UniProt P01563)", "test": "SPR", "data": [{"binder": "B1", "values": [{"measurement": "Kd", "result": 4.58, "unit": "nM"}]}]}
